Experimental data published in publication PMC8427768.

Biological target: T1, Elk1 ETS domain (human, UniProt P19419 1-93)
T1 sequence: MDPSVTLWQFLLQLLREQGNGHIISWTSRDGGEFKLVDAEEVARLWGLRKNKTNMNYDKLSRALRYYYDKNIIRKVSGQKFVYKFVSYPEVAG
Test: SPR

B1: E74 (dsDNA)
DNA 1: CTGAATAACCGGAAGTAACTCATC
DNA 2: GATGAGTTACTTCCGGTTATTCAG
  Kd: 0.02 ± 0.01 nM

B2: SC1 (dsDNA)
DNA 1: CGGCCAAGCCGGAAGTGAGTGCC
DNA 2: GGCACTCACTTCCGGCTTGGCCG
  Kd: 0.06 ± 0.01 nM
